Among the data in the Immune Epitope Database (IEDB) are IC50 and Kd values, retold here.

Some results are limits rather than exact numbers.

Assay [1] has as its target HLA-A*24:02. The assay is described as follows: IEDB peptide-MHC binding, purified MHC/competitive/fluorescence; ≥ and ≤ were set here for values at or beyond the usual limits of such assays.
Assay [2] addresses HLA-A*03:01. The assay is described as follows: IEDB peptide-MHC binding, purified MHC/direct/fluorescence; filed as Kd, often an IC50 or EC50 that approximates it; ≥ and ≤ were set here for values at or beyond the usual limits of such assays.
The target of assay [3] is HLA-A*26:01. Described as above.
The target of assay [4] is HLA-B*08:01. Described as above.
The target of assay [5] is HLA-B*07:02. Described as above.
Assay [6] concerns the target HLA-B*27:05. Described as above.
In assay [7] the target is HLA-A*24:03. The assay is described as above.
Assay [8] has as its target HLA-A*02:01. The description is as above.
The target of assay [9] is HLA-A*31:01. Described as above.
For assay [10], the target named is HLA-B*40:01. The assay is described as above.
The target of assay [11] is HLA-A*69:01. Described as above.
Assay [12] has as its target HLA-B*15:01. Described as above.
Assay [13] concerns the target HLA-A*11:01. The description is as above.
In assay [14] the target is HLA-A*01:01. The description is as above.
Assay [15] has as its target HLA-B*58:01. The assay is described as above.
Assay [16] addresses HLA-B*44:02. Described as above. Conditions: source organism: Brucella abortus.
The target in assay [17] is HLA-A*30:02. The assay is described as follows: IEDB peptide-MHC binding, purified MHC/competitive/radioactivity; filed as Kd, often an IC50 or EC50 that approximates it; ≥ and ≤ were set here for values at or beyond the usual limits of such assays.
In assay [18] the target is HLA-A*26:01. The assay is described as above.
In assay [19] the target is HLA-B*15:01. Described as above.
The target in assay [20] is HLA-A*01:01. Described as above.
Assay [21] concerns the target HLA-A*03:01. The description is as above.
The target of assay [22] is HLA-A*11:01. The description is as above. To be noted: source organism: Dengue virus 2 Jamaica/1409/1983.
In assay [23] the target is HLA-A*30:01. The description is as above. Conditions: source organism: Dengue virus 4 Philippines/H241/1956.
For assay [24], the target named is HLA-B*15:17. The assay is described as follows: IEDB peptide-MHC binding, purified MHC/competitive/fluorescence; filed as Kd, often an IC50 or EC50 that approximates it; ≥ and ≤ were set here for values at or beyond the usual limits of such assays. To be noted: source organism: Homo sapiens.
The target of assay [25] is HLA-A*69:01. Described as above. To be noted: source organism: Homo sapiens.
In assay [26] the target is HLA-B*39:01. Described as above. To be noted: source organism: Homo sapiens.
The target in assay [27] is HLA-A*02:01. The assay is described as follows: IEDB peptide-MHC binding, purified MHC/competitive/fluorescence; ≥ and ≤ were set here for values at or beyond the usual limits of such assays.
The target in assay [28] is HLA-B*53:01. In words: IEDB peptide-MHC binding, purified MHC/competitive/radioactivity; filed as Kd, often an IC50 or EC50 that approximates it; ≥ and ≤ were set here for values at or beyond the usual limits of such assays.
Assay [29] addresses HLA-B*51:01. The description is as above.
Assay [30] deals with HLA-B*18:01. In words: IEDB peptide-MHC binding, purified MHC/direct/fluorescence; filed as Kd, often an IC50 or EC50 that approximates it; ≥ and ≤ were set here for values at or beyond the usual limits of such assays. To be noted: source organism: Giardia lamblia ATCC 50803.
The target in assay [31] is HLA-A*32:01. The assay is described as follows: IEDB peptide-MHC binding, purified MHC/competitive/radioactivity; filed as Kd, often an IC50 or EC50 that approximates it; ≥ and ≤ were set here for values at or beyond the usual limits of such assays.
Where [32] appears, read: source organism: Zaire ebolavirus.
[33] abbreviates: source organism: Pseudomonas viridiflava.
Where [34] appears, read: source organism: Brucella abortus.
Setting [35] is: source organism: Dengue virus 3 Sri Lanka/1266/2000.
Setting [36] is: source organism: Sudan ebolavirus.
Where [37] appears, read: source organism: Dengue virus 2 Jamaica/1409/1983.
[38] abbreviates: source organism: Dengue virus 4 Philippines/H241/1956.
Setting [39] is: source organism: Vaccinia virus WR.
Where [40] appears, read: source organism: Dengue virus 2 Peru/IQT2913/1996.
[41] abbreviates: source organism: Giardia lamblia ATCC 50803.
Setting [42] is: source organism: Dengue virus 3 Martinique/1243/1999.
Setting [43] is: source organism: Vaccinia virus Copenhagen.
Where [44] appears, read: source organism: Dengue virus 1 Brazil/97-11/1997.

What is called IC50 is the concentration at which inhibition is half-maximal. Higher therefore signals a need for much substance. In assay [1] (setting [32]), SFLLMLCLH registered an IC50 of at least 266000 nM.

One may read the Kd as a measure of binding affinity in units of concentration. In the case of DYDQRDYGF, the Kd in assay [2] (setting [33]), in assay [3] (setting [33]), in assay [4] (setting [33]), in assay [5] (setting [33]), in assay [6] (setting [33]) and in assay [7] (setting [33]) was at least 20000 nM in each case. Also, the Kd in assay [8] (setting [33]), in assay [9] (setting [33]), in assay [10] (setting [33]), in assay [11] (setting [33]), in assay [12] (setting [33]) and in [13] (setting [33]) was at least 20000 nM in each case. Also, the Kd in assay [14] (setting [33]) and in assay [15] (setting [33]) was at least 20000 nM in each case.

AENGWGFYF: the Kd in assay [2] (setting [34]), in assay [3] (setting [34]), in assay [4] (setting [34]), in [5] (setting [34]), in assay [6] (setting [34]) and in assay [8] (setting [34]) was at least 20000 nM throughout. In addition, the Kd was 6420 nM in assay [16]; at least 20000 nM in assay [9] (setting [34]); 28.9 nM in assay [10] (source organism: Brucella suis); at least 20000 nM in assay [11] (setting [34]); 285 nM in assay [12] (source organism: Brucella suis); at least 20000 nM in assay [13] (setting [34]). In addition, the Kd in assay [14] (setting [34]) and in assay [15] (setting [34]) was at least 20000 nM each time.

Take LLIVSGIFPY: the Kd in assay [17] (setting [35]) is at least 60000 nM; in assay [18] (setting [35]), 11200 nM; in assay [19] (setting [35]) it was 2.26 nM; in [20] (setting [35]), 7500 nM.

Consider PYFGPGAEG, for which the IC50 in [1] (setting [36]) is at least 114000 nM.

For the sequence TIMAAILAY, the Kd in [21] (setting [37]) is 28.8 nM; in [17] (setting [37]) it was 117 nM; in [18] (setting [37]) it was 156 nM; in assay [19] (setting [37]) it was 73.3 nM; in assay [22], 164 nM; in assay [20] (setting [37]) it was at least 26600 nM.

With KLRIKGMSY, the Kd in [21] (setting [38]) was 8.36 nM; in [17] (setting [38]) it was 79.6 nM; in assay [23] it was 18.6 nM; in assay [19] (setting [38]) it was 38.5 nM.

For GPSPSHKSV, the Kd in assay [24], in [25] and in assay [26] was at least 20000 nM each time.

Consider VFLPNPAFI, for which the IC50 came out at 18500 nM in assay [1] (source organism: Variola virus) and 715 nM in assay [27] (source organism: Variola virus).

Consider AVFMLMETM, for which the Kd in assay [19] (setting [39]) was found to be 26 nM.

As for FLLQLNETI, the IC50 in assay [1] (setting [32]) was determined as 862 nM; in assay [27] (setting [32]) it was 330 nM.

MSRRRIYVL gave a Kd in assay [4] (source organism: Cowpox virus) of 6 nM.

On to RIKQKGILGY, for which the values for the Kd in assay [17] (setting [40]) and in assay [19] (setting [40]) were 1440 nM and 152 nM, respectively.

In [1] (setting [32]), DPSSGYYST registered an IC50 of at least 151000 nM.

Turning to MPSVIEKMET, the Kd is 1610 nM in assay [28] (setting [37]) and 9480 nM in [29] (setting [37]).

With WEPPERHIL, the Kd in assay [30] is at most 1 nM; in assay [10] (setting [41]), at least 20000 nM.

On to PPVSDLKYSW, for which, in assay [28] (source organism: Dengue virus 4 Dominica/814669/1981), the Kd worked out at 1580 nM.

QHSTTLFKI: the IC50 was 2120 nM in [1] (setting [36]) and at least 80000 nM in assay [27] (setting [36]).

VTRGAVLTY: the Kd in [17] (setting [42]) was at least 76900 nM; in assay [19] (setting [42]), 30 nM; in [20] (setting [42]), 3110 nM.

For the sequence SQHNYRQGY, the Kd in assay [17] (setting [38]) worked out at 23.5 nM; in [19] (setting [38]), 3.47 nM.

Take MVYKLVLLF: the Kd in [31] (setting [43]) turned out to be 330 nM; in [19] (setting [43]), 70.5 nM.

In the case of LPTYLSSRA, the Kd in [29] (setting [38]) was at least 23700 nM.

For the sequence LMTGTLAVF, the Kd in assay [19] (setting [44]) came to 0.4 nM.

On to KQITNELNY, for which the Kd in assay [17] (setting [38]) is 9.99 nM; in [19] (setting [38]) it was 7.56 nM.

Take TYVQLESRF: the IC50 in assay [1] (setting [32]) amounted to 56400 nM.

Turning to TLITGNMSF, in assay [19] (setting [37]), the Kd was determined as 91.1 nM.

In the case of DPRRCLKPVI, the Kd in assay [29] (setting [44]) worked out at 10500 nM.

Consider VSKKEGGAMY, for which the Kd in assay [17] (setting [37]) is at least 69700 nM; in [19] (setting [37]), 84.8 nM; in [20] (setting [37]), 19900 nM.

Regarding CPNERRAWNF, in [28] (setting [38]), the Kd was 70.6 nM.

PPFGDSYIV: in assay [29] (setting [38]), the Kd was at least 23100 nM.

Regarding GTLALSLTF, the Kd in [31] (setting [38]) was found to be 1370 nM; in assay [19] (setting [38]), 36.2 nM.

Consider IYTLEYDGF, for which, in [7] (source organism: Mycobacterium tuberculosis), the Kd was 74.8 nM.

In turn, MYLRTIYDL displayed a Kd in assay [7] (source organism: Rhodococcus erythropolis) of 0.6 nM.

Consider MLNTYGEGF, for which the Kd in assay [19] (setting [39]) was determined as 2.25 nM.

In the case of YMATTILEM, the Kd in assay [19] (setting [39]) is 2.17 nM.

Regarding RWGGTCHIL, the IC50 in assay [1] (setting [32]) came to 55.6 nM.

As for CLHHAYQGD, the IC50 was at least 92000 nM in assay [1] (setting [32]) and at least 119000 nM in assay [27] (setting [32]).

Turning to KSSFFVWVI, the IC50 is 69.4 nM in assay [1] (setting [36]) and 274 nM in [27] (setting [36]).

Turning to HPGFTILALF, the Kd in [28] (setting [42]) came to 1.04 nM.

In [7] (source organism: Burkholderia mallei), RYPAIAGGI returned a Kd of 3.3 nM.

For NAVILQNAW, the Kd in assay [28] (setting [37]) was found to be 80.6 nM.

On to GGILPWTKI, for which the IC50 in assay [1] (setting [39]) is at least 78100 nM; in [27] (setting [39]), at least 125000 nM.

KGRVGRVNP registered an IC50 in assay [1] (source organism: Variola virus) of 9760 nM.

In assay [7] (setting [41]), ATPPSLVHF gave a Kd of 152 nM.

In the case of NPTAIFLTT, in [28] (setting [37]), the Kd was found to be 1680 nM.

Turning to YACKQILHG, the Kd in assay [19] (setting [39]) is 2270 nM.

Regarding NPTVDGIMTI, the Kd in assay [28] (setting [42]) worked out at 214 nM.
